Laboratory results from article PMC10683072 (2023).

Tests used:
KQTSV peptide [1] = target: T1, KQTSV peptide; experiment: diffusion lag time measurement with labeled peptide (Figure S12)
T1 chain: KQTSV

KQTSV peptide [2] = target: T2, KQTSV peptide (tandem dimer of PDZ3); experiment: as above
T2 chain: KQTSV

B1: PDZ3 PDZ3 (protein)
chain: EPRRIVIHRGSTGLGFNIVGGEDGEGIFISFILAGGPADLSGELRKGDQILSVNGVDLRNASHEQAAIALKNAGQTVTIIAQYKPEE
**Q.** For B1, which Kd (KQTSV peptide [1]) is on record?
**A.** 670 nM

B2: 2xPDZ3 (two tandem repeats of PDZ3) PDZ3 (protein)
chain: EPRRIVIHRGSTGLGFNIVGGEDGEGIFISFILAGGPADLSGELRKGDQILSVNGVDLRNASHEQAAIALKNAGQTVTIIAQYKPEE
**Q.** For B2, which Kd (KQTSV peptide [2]) is on record?
**A.** 680 nM
